Results on 16 molecules are retold here after US20240376170A1 (BRIGHT PEAK THERAPEUTICS, published 2024).

T1: IL-2 receptor βγ complex (human, UniProt P14784 27-551; P31785 23-369)
T1 sequence (looked up) 1: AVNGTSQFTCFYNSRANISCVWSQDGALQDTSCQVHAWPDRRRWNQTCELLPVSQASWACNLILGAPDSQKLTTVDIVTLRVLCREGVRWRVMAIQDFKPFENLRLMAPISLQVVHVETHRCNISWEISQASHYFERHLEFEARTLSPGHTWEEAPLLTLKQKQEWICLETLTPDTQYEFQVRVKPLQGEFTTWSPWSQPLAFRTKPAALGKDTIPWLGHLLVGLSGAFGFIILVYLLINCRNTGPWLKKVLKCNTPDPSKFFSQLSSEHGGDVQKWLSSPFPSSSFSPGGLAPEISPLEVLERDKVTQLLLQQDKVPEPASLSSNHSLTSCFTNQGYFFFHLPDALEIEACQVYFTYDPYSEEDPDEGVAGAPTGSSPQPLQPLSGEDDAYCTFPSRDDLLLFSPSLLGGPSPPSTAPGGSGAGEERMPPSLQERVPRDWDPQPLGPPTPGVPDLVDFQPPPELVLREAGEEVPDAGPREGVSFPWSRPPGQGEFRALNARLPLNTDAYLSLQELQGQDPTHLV
T1 sequence (looked up) 2: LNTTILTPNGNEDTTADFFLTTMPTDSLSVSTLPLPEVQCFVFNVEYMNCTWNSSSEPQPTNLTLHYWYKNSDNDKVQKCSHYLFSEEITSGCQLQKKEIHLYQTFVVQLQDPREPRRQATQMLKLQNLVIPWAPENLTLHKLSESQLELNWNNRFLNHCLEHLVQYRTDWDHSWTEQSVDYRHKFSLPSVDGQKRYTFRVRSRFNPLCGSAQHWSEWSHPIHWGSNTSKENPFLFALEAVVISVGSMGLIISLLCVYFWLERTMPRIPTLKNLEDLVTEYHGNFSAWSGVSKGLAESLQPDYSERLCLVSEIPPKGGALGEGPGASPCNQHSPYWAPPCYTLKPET

B1: CMP-159, MMP2 cleaved molecule (ligand)
chain: PLGLAGAPTSSSTKKTQLQLEHLLLDLE[Nle]ILNGINNYKNPKLTR[Nle]L[hSer][Yn3(4)]KF[Ygp(4)][Nle]PKKATELKHLQCLEEELKPLEEVL[hSer]LAQSKNFHLRPRDLISNINVIVLELKGSETTF[hSer]CEYADETATIVEFLNRWITFSQSIISTLT
modifications: not fully specified (bridges); ends and bridges not checked; also: MMP2 cleaved, site not given here
B2: CMP-155 (ligand)
chain: APTSSSTKKTQLQLEHLLLDLQ[Nle]ILNGIENYKNPKLTR[Nle]L[hSer][Yn3″]KF[Ygp″][Nle]PKKATELKHLQCLEEELKPLEEVL[hSer]LAQSKNFHLRPRDLISNINVIVLELKGSETTF[hSer]CEYADETATIVEFLNRWITFSQSIISTLT
modifications: linker N-29 via GPLGLAG‑PEG9
B3: CMP-162, MMP2 cleaved molecule (ligand)
chain: APTSSSTKKTQLQLEHLLLDLQKILNGINNYKNPKLTR[Nle]L[hSer][Yn3(4)]KF[Ygp(4)][Nle]PKKATELKHLQCLEEELKPLEEVL[hSer]LAQSKNFHLRPRDLISNINVIVLELKGSETTF[hSer]CEYADETATIVEFLNRWITFSQSIISTLT
modifications: not fully specified; ends and bridges not checked; also: MMP2 cleaved, cleavage site and linker fragment on Lys23 side chain not given here
B4: CMP-158, MMP2 cleaved molecule (ligand)
chain: APTSSSTKKTQLQLEHLLLDLE[Nle]ILNGINNYKNPKLTR[Nle]L[hSer][Yn3(4)]KF[Ygp(4)][Nle]PKKATELKHLQCLEEELKPLEEVL[hSer]LAQSKNFHLRPRDLISNINVIVLELKGSETTF[hSer]CEYADETATIVEFLNRWITFSQSIISTLT
modifications: not fully specified; ends and bridges not checked; also: MMP2 cleaved, cleavage site and linker fragments on N-terminus and Glu22 side chain not given here
B5: CMP-157 (ligand)
chain: PLGLAGAPTSSSTKKTQLQLEHLLEDLQ[Nle]ILNGINNYKNPKLTR[Nle]L[hSer][Yn3″]KF[Ygp″][Nle]PKKATELKHLQCLEEELKPLEEVL[hSer]LAQSKNFHLRPRDLISNINVIVLELKGSETTF[hSer]CEYADETATIVEFLNRWITFSQSIISTLT
modifications: linker N-25 via PEG4′
B6: CMP-160 (ligand)
chain: GPLGLAG[PEG9′]APTSSSTKKTQLQLEHLLLDLQ[Nle]ILEGINNYKNPKLTR[Nle]L[hSer][Yn3(4)]KF[Ygp(4)][Nle]PKKATELKHLQCLEEELKPLEEVL[hSer]LAQSKNFHLRPRDLISNINVIVLELKGSETTF[hSer]CEYADETATIVEFLNRWITFSQSIISTLT
modifications: bridge N-34; not fully specified (bridges); ends not checked
B7: CMP-160, MMP2 cleaved molecule (ligand)
chain: APTSSSTKKTQLQLEHLLLDLQ[Nle]ILEGINNYKNPKLTR[Nle]L[hSer][Yn3(4)]KF[Ygp(4)][Nle]PKKATELKHLQCLEEELKPLEEVL[hSer]LAQSKNFHLRPRDLISNINVIVLELKGSETTF[hSer]CEYADETATIVEFLNRWITFSQSIISTLT
modifications: not fully specified; ends and bridges not checked; also: MMP2 cleaved, cleavage site and linker fragments on N-terminus and Glu26 side chain not given here
B8: CMP-161, MMP2 cleaved molecule (ligand)
chain: PLGLAGAPTSSSTKKTQLQLEHLLLDLQ[Nle]ILEGINNYKNPKLTR[Nle]L[hSer][Yn3(4)]KF[Ygp(4)][Nle]PKKATELKHLQCLEEELKPLEEVL[hSer]LAQSKNFHLRPRDLISNINVIVLELKGSETTF[hSer]CEYADETATIVEFLNRWITFSQSIISTLT
modifications: not fully specified (bridges); ends and bridges not checked; also: MMP2 cleaved, site not given here
B9: CMP-157, MMP2 cleaved molecule (ligand)
chain: PLGLAGAPTSSSTKKTQLQLEHLLEDLQ[Nle]ILNGINNYKNPKLTR[Nle]L[hSer][Yn3″]KF[Ygp″][Nle]PKKATELKHLQCLEEELKPLEEVL[hSer]LAQSKNFHLRPRDLISNINVIVLELKGSETTF[hSer]CEYADETATIVEFLNRWITFSQSIISTLT
modifications: not fully specified (bridges); also: MMP2 cleaved, site not given here
B10: CMP-158 (ligand)
chain: GPLGLAG[PEG4′]APTSSSTKKTQLQLEHLLLDLE[Nle]ILNGINNYKNPKLTR[Nle]L[hSer][Yn3(4)]KF[Ygp(4)][Nle]PKKATELKHLQCLEEELKPLEEVL[hSer]LAQSKNFHLRPRDLISNINVIVLELKGSETTF[hSer]CEYADETATIVEFLNRWITFSQSIISTLT
modifications: bridge N-30; not fully specified (bridges); ends not checked
B11: CMP-156, MMP2 cleaved molecule (ligand)
chain: APTSSSTKKTQLQLEHLLEDLQ[Nle]ILNGINNYKNPKLTR[Nle]L[hSer][Yn3″]KF[Ygp″][Nle]PKKATELKHLQCLEEELKPLEEVL[hSer]LAQSKNFHLRPRDLISNINVIVLELKGSETTF[hSer]CEYADETATIVEFLNRWITFSQSIISTLT
modifications: not fully specified; also: MMP2 cleaved, cleavage site and linker fragments on N-terminus and Glu19 side chain not given here
B12: CMP-159 (ligand)
chain: PLGLAGAPTSSSTKKTQLQLEHLLLDLE[Nle]ILNGINNYKNPKLTR[Nle]L[hSer][Yn3(4)]KF[Ygp(4)][Nle]PKKATELKHLQCLEEELKPLEEVL[hSer]LAQSKNFHLRPRDLISNINVIVLELKGSETTF[hSer]CEYADETATIVEFLNRWITFSQSIISTLT
modifications: bridge N-28; not fully specified (N-terminus, bridges); ends not checked
B13: CMP-156 (ligand)
chain: APTSSSTKKTQLQLEHLLEDLQ[Nle]ILNGINNYKNPKLTR[Nle]L[hSer][Yn3″]KF[Ygp″][Nle]PKKATELKHLQCLEEELKPLEEVL[hSer]LAQSKNFHLRPRDLISNINVIVLELKGSETTF[hSer]CEYADETATIVEFLNRWITFSQSIISTLT
modifications: linker N-19 via GPLGLAG‑PEG4
B14: CMP-162 (ligand)
chain: APTSSSTKKTQLQLEHLLLDLQKILNGINNYKNPKLTR[Nle]L[hSer][Yn3(4)]KF[Ygp(4)][Nle]PKKATELKHLQCLEEELKPLEEVL[hSer]LAQSKNFHLRPRDLISNINVIVLELKGSETTF[hSer]CEYADETATIVEFLNRWITFSQSIISTLT
modifications: ends and bridges not checked; also: further groups not given here
B15: CMP-161 (ligand)
chain: PLGLAGAPTSSSTKKTQLQLEHLLLDLQ[Nle]ILEGINNYKNPKLTR[Nle]L[hSer][Yn3(4)]KF[Ygp(4)][Nle]PKKATELKHLQCLEEELKPLEEVL[hSer]LAQSKNFHLRPRDLISNINVIVLELKGSETTF[hSer]CEYADETATIVEFLNRWITFSQSIISTLT
modifications: bridge N-32; not fully specified (N-terminus, bridges); ends not checked
B16: CMP-155, MMP2 cleaved molecule (ligand)
chain: APTSSSTKKTQLQLEHLLLDLQ[Nle]ILNGIENYKNPKLTR[Nle]L[hSer][Yn3″]KF[Ygp″][Nle]PKKATELKHLQCLEEELKPLEEVL[hSer]LAQSKNFHLRPRDLISNINVIVLELKGSETTF[hSer]CEYADETATIVEFLNRWITFSQSIISTLT
modifications: not fully specified; also: cleaved by MMP2, cleavage product not defined, N-terminal PEG9 link and Glu29 side-chain attachment of the cleavable peptide not defined

Bridges are numbered along the chain shown (N, C = ends). Primed or numbered codes have the meaning given here. [ ]: non-standard residue; d: D form. Ygp(4) = Tyr with amino-capped PEG8 (O-(8x polyethylene glycol-amino)-tyrosine); Yn3(4) = Tyr with azide-capped PEG9 (O-(9x polyethylene glycol-azido)-tyrosine); Ygp″ = O-(8x polyethylene glycol-amino)-tyrosine; Yn3″ = O-(9x polyethylene glycol-azido)-tyrosine; PEG4′ = 4x polyethylene glycol; PEG9′ = 9x polyethylene glycol; hSer = N[C@@H](CCO)C(=O)O; Nle = CCCC[C@H](N)C(=O)O

This experiment deals with T1, IL-2 receptor βγ complex. The experiment can be described thus: cell-based or functional assay.
Consider B1, for which the “Average EC50, pSTAT5 Assay (T cells)” value was determined as 2.27 nM. In the case of B2 it was 10.7 nM; in that of B3, 0.758 nM. Next, B4: 1.95 nM; B5: 54.5 nM. Next, B6: 27.8 nM; B7: 2.21 nM; B8: 3.59 nM. For B9, the “Average EC50, pSTAT5 Assay (T cells)” value was 10 nM.

As for B10, the “Average EC50, pSTAT5 Assay (T cells)” value stood at 36.6 nM. In the case of B11 it was 21.3 nM; in that of B12, 35.5 nM; in that of B13, 86 nM. In the case of B14 it was 2.79 nM; in that of B15, 29.4 nM.

As for B16, the “Average EC50, pSTAT5 Assay (T cells)” value came out at 2.9 nM.
